Earlier results on one substance are cited in article PMC11381654.

The target of the data set is IL-4Rα (Homo sapiens) (UniProt P24394).

On to dupilumab, for which the Kd was 0.033 nM.

What is called Kd is the concentration at which binding is half-saturated.
